The text below walks through data of US20230322927A1 (Regeneron, published 2023).

The target in assay [1] is T1, human EGFR on cells (human, UniProt P00533 25-1210). In words: cell-based or functional assay.
The target in assay [2] is human CD28 on cells (human, UniProt P10747 19-220). Nature of the assay: cell-based or functional assay.
Assay [3] addresses T2, hEGFR(ECD).CPGG.MMH6 (REGN355) (human, UniProt P00533 25-647).
T2 construct: Soluble extracellular domain with a myc-myc-hexahistidine tag; also called hEGFR.mmH; hEGFR.mmh
Nature of the assay: SPR (Biacore 4000) at 25 C; antibody captured on anti-human Fc, hEGFR.mmH injected. For orientation: Surface plasmon resonance follows binding to a sensor surface in real time, without labels.
Procedure: Association was monitored for 5 minutes, and the dissociation of hEGFR.mmH in HBS-EP running buffer was monitored for 10 minutes. All of the binding kinetics experiments were performed at 25° C. Kinetic association (kₐ) and dissociation (kd) rate constants were determined by fitting the real-time sensorgrams to a 1:1 binding model using Scrubber 2.0c curve fitting software.

For assay [4], the target named is T1, human EGFR on cells. In words: flow cytometry titration on 22RV1 cells. For orientation: A flow cytometer gives signals particle by particle.
Procedure: (§1) After incubation, the cells were washed twice with cold PBS containing 1% filtered FBS and a Fluorophore-conjugated anti-human secondary antibody was added to the cells and incubated for an additional 30 minutes. Live/dead dye was added to Human and Cynomolgus T cells incubations. Wells containing no antibody or secondary only were used as a control.
(§2) After incubation with EGFR expressing cells, cells were washed, re-suspended in 200 μL cold PBS containing 1% filtered FBS and analyzed by flow cytometry on a BD FACS Canto II.
The target of assay [5] is T1, human EGFR on cells. In words: flow cytometry titration on PEO1 cells.
Procedure: as §1, §2
Assay [6] concerns the target T1, human EGFR on cells. Nature of the assay: flow cytometry titration on A375 cells.
Procedure: as §1, §2
For assay [7], the target named is T3, hCD28.mFc (REGN2012) (human, UniProt P10747 19-152, limits assumed).
T3 construct: also called Human CD28-mFc; hCD28 with a C-terminal mouse Fc tag; not shown: C-terminal mouse Fc tag
Nature of the assay: SPR (Biacore T-200) at 25 C; hCD28.mFc captured on anti-mouse Fc, antibody injected.

For assay [8], the target named is T1, human EGFR on cells. Nature of the assay: flow cytometry titration on CASKI cells.
For assay [9], the target named is T2, hEGFR(ECD).CPGG.MMH6 (REGN355). In words: SPR (Biacore) at 25 C; antibody captured on anti-hFc, hEGFR.mmH injected.
Assay [10] shares this target. In words: SPR (Biacore) at 37 C; antibody captured on anti-hFc, hEGFR.mmH injected.
Procedure: SPR Kinetics Method: Kinetics binding parameters were determined via surface plasmon resonance (SPR) using a T-200 instrument and CM5 sensors (GE Healthcare). Double-referenced sensorgrams were globally fit to a 1:1 binding model using Scrubber (BioLogics Software). The dissociation rate constant (kd) was determined by fitting the change in the binding response during the dissociation phase, and the association rate constant (ka) was determined by fitting analyte binding at different concentrations. The KD was calculated from the ratio of the kd and ka.
A six-point, three-fold dilution series of hEGFR.mmH starting at 30 nM was injected over this surface at a flow rate of 50 uL/min for 5 minutes. Surface was regenerated with a 10 second pulse of 20 mM H3PO4. Dissociation was measured for 10 minutes. Sensorgrams were processed and fit as described above.
Assay [11] concerns the target T3, hCD28.mFc (REGN2012). In words: SPR (Biacore) at 37 C; hCD28.mFc captured on anti-mFc, antibody injected.
Procedure: SPR Kinetics Method: Kinetics binding parameters were determined via surface plasmon resonance (SPR) using a T-200 instrument and CM5 sensors (GE Healthcare). Double-referenced sensorgrams were globally fit to a 1:1 binding model using Scrubber (BioLogics Software). The dissociation rate constant (kd) was determined by fitting the change in the binding response during the dissociation phase, and the association rate constant (ka) was determined by fitting analyte binding at different concentrations. The KD was calculated from the ratio of the kd and ka. The dissociative half-life (t½) was calculated as In2/kd and converted to minutes.
CD28 Capture Method Specifics: An anti-mFc polyclonal Ab (GE) was coupled to a CM5 sensor surface using traditional EDC/NHS coupling chemistry. ˜30RUs of hCD28.mFc were captured on this surface. […] Dissociation was measured for 5 minutes. Surface was regenerated with a 40 second injection of 10 mM glycine, pH 1.5. Sensorgrams were processed and fit as described above.
For assay [12], the target named is T3, hCD28.mFc (REGN2012). In words: SPR (Biacore) at 25 C; hCD28.mFc captured on anti-mFc, antibody injected.

Positions count from the first letter of the chain named.

B1: mAb13006P2 (antibody, V domains shown)
VH: QVQLQESGPGLVKPSETLSLTCTVSDDSIISYYWSWIRQPPGKGLEWIGYIYYSGRTNYNPSLKSRVTISVDTSKNQVSLKLNSVIAADTAVYYCARVSEDSYYHYGMDVWGQGTTVTVSS
VL: not shown
Turning to B1, in assay [1], the “IC50 [M] of inhibition of BaF3/hEGFR proliferation in presence of 0.5 nM hTGFβ” value worked out at 6.55e-09 M, the “Inhibition [%] of BaF3/hEGFR proliferation in presence of 0.5 nM hEGF” value came out at 93.2% and the “Inhibition [%] of BaF3/hEGFR proliferation in presence of 0.5 nM hTGFβ” value is 97.2%.

B2: mAb12999P2 (antibody, V domains shown)
VH: B1 VH with D26G, S31T, Y32F, K43R, R56I, N83S, I86T, Y104F
VL: not shown
Regarding B2, in assay [1], the “IC50 [M] of inhibition of BaF3/hEGFR proliferation in presence of 0.5 nM hEGF” value was found to be 1.98e-08 M, the “IC50 [M] of inhibition of BaF3/hEGFR proliferation in presence of 0.5 nM hTGFβ” value was found to be 7.79e-09 M, the “Inhibition [%] of BaF3/hEGFR proliferation in presence of 0.5 nM hEGF” value amounted to 91.8% and the “Inhibition [%] of BaF3/hEGFR proliferation in presence of 0.5 nM hTGFβ” value amounted to 95.9%.

B3: REGN6322 (bispecific antibody, human IgG4 S228P, kappa)
heavy 1: EVQLVESGGGLVKPGGSLRLSCTASGFSFRDAWMTWVRQVPGKGLEWVGRIRNKIDGGTTDYNTPVKDRFTISRDDSKNTLYLQMNSLKTEDTAVYYCTTDIWNYVLFYYYGLDVWGQGTTVTVSSASTKGPSVFPLAPCSRSTSESTAALGCLVKDYFPEPVTVSWNSGALTSGVHTFPAVLQSSGLYSLSSVVTVPSSSLGTKTYTCNVDHKPSNTKVDKRVESKYGPPCPPCPAPPVAGPSVFLFPPKPKDTLMISRTPEVTCVVVDVSQEDPEVQFNWYVDGVEVHNAKTKPREEQFNSTYRVVSVLTVLHQDWLNGKEYKCKVSNKGLPSSIEKTISKAKGQPREPQVYTLPPSQEEMTKNQVSLTCLVKGFYPSDIAVEWESNGQPENNYKTTPPVLDSDGSFFLYSRLTVDKSRWQEGNVFSCSVMHEALHNHYTQKSLSLSLGK
heavy 2: QVQLQESGPGLVKPSETLSLTCTVSGGSISSYYWSWIRQPPGKGLEWIGYIYYSGITHYNPSLKSRVTISVDTSKIQFSLKLSSVTAADTAVYYCARWGVRRDYYYYGMDVWGQGTTVTVSSASTKGPSVFPLAPCSRSTSESTAALGCLVKDYFPEPVTVSWNSGALTSGVHTFPAVLQSSGLYSLSSVVTVPSSSLGTKTYTCNVDHKPSNTKVDKRVESKYGPPCPPCPAPPVAGPSVFLFPPKPKDTLMISRTPEVTCVVVDVSQEDPEVQFNWYVDGVEVHNAKTKPREEQFNSTYRVVSVLTVLHQDWLNGKEYKCKVSNKGLPSSIEKTISKAKGQPREPQVYTLPPSQEEMTKNQVSLTCLVKGFYPSDIAVEWESNGQPENNYKTTPPVLDSDGSFFLYSRLTVDKSRWQEGNVFSCSVMHEALHNRFTQKSLSLSPGK
light: not shown
notes: EGFR arm from mAb35193P2, CD28 arm from mAb14226; also called bsAb6322; EGFRxCD28
The term Kd denotes the constant that tells how readily two partners part at equilibrium. Lower therefore signals a tighter complex. Broadly, the koff is the first-order rate constant of dissociation. Higher therefore signals a short-lived complex. A word on the kon: it is the second-order rate constant of association. High values mean faster complex formation, low ones slower complex formation. For orientation: t½ means the time in which the quantity being followed falls by half. Read a low t½ as fast loss. One may read the EC50 as the concentration giving half of the maximal effect. As to B3, in [2], the “IL-2 Release MAX (pg/mL), human CD3+ T cells + NCI-H292 cells, with 20 nM IsoC-1” value stood at 8.02 pg/mL; the “IL-2 Release MAX (pg/mL), human CD3+ T cells + NCI-H292 cells, with 20 nM cemiplimab” value is 21.8 pg/mL; the “Proliferation MAX (CPM), human CD3+ T cells + NCI-H292 cells, with 20 nM IsoC-1” value was 1860 CPM; the “Proliferation MAX (CPM), human CD3+ T cells + NCI-H292 cells, with 20 nM cemiplimab” value is 2380 CPM. For the same molecule, in assay [3], the Kd stood at 9.38 nM, the koff was found to be 0.00146 s⁻¹, the kon came to 156000 M⁻¹ s⁻¹ and the “t½” value was found to be 7.9 min. Also, in assay [4], a half-maximal effect (EC50) was put at 9.58 nM. In [5], this molecule showed an EC50 of 5.77 nM. Further, the half-maximal effective concentration (EC50) in [6] stood at 4.64 nM. Moreover, in assay [7], the Kd was determined as 10.3 nM, the koff amounted to 0.00268 s⁻¹, the kon is 261000 M⁻¹ s⁻¹ and the “t½” value is 4.3 min. In addition, a half-maximal effect in assay [8] (EC50) was put at 24.4 nM. Further, the “EC50 [M] of increase of BaF3/hEGFR proliferation in presence of 0.5 nM hTGFβ” value in assay [1] was found to be 3.67e-09 M.

B4: REGN7075 (bispecific antibody, human IgG4 S228P, kappa)
heavy 1: QVQLQESGPGLVKPSETLSLTCTVSGDSIITFYWSWIRQPPGRGLEWIGYIYYSGITNYNPSLKSRVTISVDTSKNQVSLKLSSVTAADTAVYYCARVSEDSYFHYGMDVWGQGTTVTVSSASTKGPSVFPLAPCSRSTSESTAALGCLVKDYFPEPVTVSWNSGALTSGVHTFPAVLQSSGLYSLSSVVTVPSSSLGTKTYTCNVDHKPSNTKVDKRVESKYGPPCPPCPAPPVAGPSVFLFPPKPKDTLMISRTPEVTCVVVDVSQEDPEVQFNWYVDGVEVHNAKTKPREEQFNSTYRVVSVLTVLHQDWLNGKEYKCKVSNKGLPSSIEKTISKAKGQPREPQVYTLPPSQEEMTKNQVSLTCLVKGFYPSDIAVEWESNGQPENNYKTTPPVLDSDGSFFLYSRLTVDKSRWQEGNVFSCSVMHEALHNHYTQKSLSLSLGK
heavy 2: B3 heavy 2
light: not shown
notes: EGFR arm from mAb12999P2, CD28 arm from mAb14226; also called bsAb7075; H4sH24623D
As to B4, in assay [9], the affinity, expressed as Kd, was 2.8 nM; the koff worked out at 0.000433 s⁻¹; the kon was 154000 M⁻¹ s⁻¹; the “t½” value was 26.7 min. In [10], this molecule returned a Kd of 0.933 nM, a koff of 0.000412 s⁻¹ and a kon of 441000 M⁻¹ s⁻¹. Moreover, in [2], the “IL-2 Release MAX (pg/mL), human CD3+ T cells + NCI-H292 cells, with 20 nM IsoC-1” value was 12.7 pg/mL; the “IL-2 Release MAX (pg/mL), human CD3+ T cells + NCI-H292 cells, with 20 nM cemiplimab” value was determined as 27.2 pg/mL; the “Proliferation EC50 [M], human CD3+ T cells + NCI-H292 cells, with 20 nM IsoC-1” value stood at 3.92e-11 M; the “Proliferation EC50 [M], human CD3+ T cells + NCI-H292 cells, with 20 nM cemiplimab” value was 2.16e-11 M. In assay [2], the “Proliferation MAX (CPM), human CD3+ T cells + NCI-H292 cells, with 20 nM IsoC-1” value is 1880 CPM and the “Proliferation MAX (CPM), human CD3+ T cells + NCI-H292 cells, with 20 nM cemiplimab” value stood at 3250 CPM. Further, the EC50 in [5] worked out at 1.22 nM. Further, in assay [11], the affinity, expressed as Kd, was 51.7 nM; the koff was 0.0131 s⁻¹; the kon came out at 254000 M⁻¹ s⁻¹; the “t½” value was 0.9 min. In addition, in [8], the EC50 was found to be 2.05 nM. Also, in assay [12], the dissociation constant Kd worked out at 10.7 nM, the off-rate (koff) came to 0.00314 s⁻¹, the kon was found to be 294000 M⁻¹ s⁻¹ and the “t½” value is 3.7 min. Besides, in assay [1], the “Inhibition [%] of BaF3/hEGFR proliferation in presence of 0.5 nM hEGF” value was -6.8% and the “Inhibition [%] of BaF3/hEGFR proliferation in presence of 0.5 nM hTGFβ” value amounted to 11.2%.

B5: REGN6321 (bispecific antibody, human IgG4 S228P, kappa)
heavy 1: EVQLVESGGGLVRPGGSLRLSCTASGFTFSTFIMFWVRQAPGKGLEYVSSISSNGGTIYYADSVKGRFTISRDNSKNTLYLQMGSLRAEDMAVYYCTRGGDFWSGYYPFDYWGQGTLVTVSSASTKGPSVFPLAPCSRSTSESTAALGCLVKDYFPEPVTVSWNSGALTSGVHTFPAVLQSSGLYSLSSVVTVPSSSLGTKTYTCNVDHKPSNTKVDKRVESKYGPPCPPCPAPPVAGPSVFLFPPKPKDTLMISRTPEVTCVVVDVSQEDPEVQFNWYVDGVEVHNAKTKPREEQFNSTYRVVSVLTVLHQDWLNGKEYKCKVSNKGLPSSIEKTISKAKGQPREPQVYTLPPSQEEMTKNQVSLTCLVKGFYPSDIAVEWESNGQPENNYKTTPPVLDSDGSFFLYSRLTVDKSRWQEGNVFSCSVMHEALHNHYTQKSLSLSLGK
heavy 2: B3 heavy 2
light: not shown
notes: also called bsAb6321; EGFRxCD28
For B5, in assay [3], the Kd amounted to 0.634 nM, the koff was determined as 4.63e-05 s⁻¹, the kon was 73000 M⁻¹ s⁻¹ and the “t½” value stood at 249 min. Moreover, in assay [6], the EC50 came out at 5.42 nM. For the same molecule, in assay [7], the equilibrium dissociation constant (Kd) worked out at 10.8 nM, the koff came to 0.00281 s⁻¹, the kon was found to be 259000 M⁻¹ s⁻¹ and the “t½” value was found to be 4.1 min. In assay [8], this molecule came in with an EC50 of 16.9 nM.

B6: mAb35193P2 (antibody, V domains shown)
VH: EVQLVESGGGLVKPGGSLRLSCTASGFSFRDAWMTWVRQVPGKGLEWVGRIRNKIDGGTTDYNTPVKDRFTISRDDSKNTLYLQMNSLKTEDTAVYYCTTDIWNYVLFYYYGLDVWGQGTTVTVSS
VL: not shown
Regarding B6, in [1], the “EC50 [M] of increase of BaF3/hEGFR proliferation in presence of 0.5 nM hTGFβ” value came out at 9.14e-10 M, the “IC50 [M] of inhibition of BaF3/hEGFR proliferation in presence of 0.5 nM hEGF” value came out at 2.55e-09 M and the “Inhibition [%] of BaF3/hEGFR proliferation in presence of 0.5 nM hEGF” value is 29.6%.
